Patent publication US20240228647A1, “OFATUMUMAB FOR TREATING MULTIPLE SCLEROSIS IN ASIAN PATIENTS” (Novartis AG, priority 2021, published 2024)
Where two headings read alike, the source gives them in different places.

Key:
[1] = Pharmacokinetics of ofatumumab in patients (ethnic comparison, half-life); details: 2000 mg intravenous infusion, refractory CLL
patients with RMS [2] = type: in vivo, human
Procedure: (§1) Ofatumumab was investigated in 1882 patients with RMS from two identical Phase III randomized, double-blind, double-dummy, active-comparator controlled, parallel-group, multicenter studies of identical design (Study I and Study II). Patients were randomized to receive either ofatumumab, OMB (20 mg s.c injections every 4 weeks, after an initial loading regimen of 3 injections on Day 1, 7, and 14), or teriflunomide, TER (14 mg p.o. once a day) as active comparator. For brevity, the teriflunomide data are not shown hereinafter.
(§2) The maximum treatment duration for an individual patient was 30 study months (approximately 2.5 years). The two studies included a total of 71 patients of Asian race (36 patients in ofatumumab and 35 patients in teriflunomide treatment groups). This Example also includes the Asian patients data from oncology studies (Study A and Study B), as supportive data, where required.
For the safety analyses of this report, non-serious treatment emergent adverse events (TEAEs) up to and including safety cut-off (i.e. 100 days after last study drug administration) and serious TEAEs regardless of the safety cutoff were considered (if reported prior to the data cut-off of Studies I and II). Common terminology criteria for adverse events (CTCAE) grading was used to record the severity of each AE. The latest version of CTCAE available at the time of TEAE reporting was used. […] The three most frequently reported AEs by SOC were ‘General disorders and administration site conditions’ ‘Infections and infestations’ and ‘Injury, poisoning and procedural complications’ in the Asian and ROW subgroups by race (Table 7). […] In the Asian subgroup, 1 patient experienced SAEs of urinary tract infections, urosepsis and testicular infarction in the ofatumumab group and 1 patient reported an SAE of nephrolithiasis in the teriflunomide group (Table 8). Due to the small number of Asian patients by race and region, results should be interpreted with caution.
AEs of special interest were summarized by risk name, PT and treatment. Furthermore, the incidence of any AE that fulfilled the search terms as defined in eCRS were summarized by risk name, level, and maximum CTCAE grade. In this section, AESIs are first described for subgroups by race and then by region. […] The definitions of AEs of special interest correspond to the identified or potential risks for ofatumumab and its class of drug as well as those for the comparator (teriflunomide). AESIs, based on the safety profiles of ofatumumab, comparator, and other anti-CD20 mABs are: • Injection-related reactions including injection-systemic reaction and injection-site • reactions • Infections, including opportunistic infections, HBV infection reactivation and PML • Malignant and premalignant disorders • Hepatic Safety • Neutropenia

patients with RMS [3] = assay: Phase II study, Japan and non-Japan subgroups of patients with RMS; type: in vivo, human
patients with RMS [4] = assay: Time to confirmed disability worsening (3mCDW, 6mCDW), Phase III Studies I and II; type: in vivo, human; details: for 3mCDW event rate n/N (%) / 3mCDW events n / 6mCDW event rate n/N (%) / 6mCDW events n: FAS
Procedure: as §1, §2
Time to 3 mCDW and 6 mCDW were key secondary efficacy endpoints in the pivotal Phase III studies.

[5] = test system: patients with Relapsing Multiple Sclerosis; details: for COVID-19 outcome / COVID-19 symptoms duration: serious case
[6] = patient 5409018, OMB interrupted
[7] = patient 5608014, OMB interrupted
[8] = patient 5800004, drug withdrawn
[9] = patient 5801015, OMB interrupted

## ofatumumab [OMB]
[1]
  PK parameters (Cmax, AUC, T1/2) in Asian vs. White patients: Comparable PK parameters
Patients with RMS [2]; Asian (race)
  TEAE: Gastrointestinal disorders, %: (11.1) %
  TEAE: Nervous system disorders, %: (11.1) %
  TEAE: Reproductive system and breast disorders, %: (11.1) %
Patients with RMS [2]; Rest of World (race)
  AESI: Injection-site reaction (any reaction), %: (11.1) %
Patients with RMS [2]; in vivo
  AE by PT: alopecia, %: 5.7%
  AE by PT: alopecia, patients: 52
  AE by PT: nasopharyngitis, %: 18.5%
  AE by PT: nasopharyngitis, patients: 168
  AE by PT: pyrexia, %: 33.3%
  AE by PT: pyrexia, patients: 12
  AE by PT: upper respiratory tract infection, %: 11.1%
  AE by PT: upper respiratory tract infection, patients: 4
  AESI Neutropenia, %: (1.0) %
  AESI: Drug abuse and dependence, %: 0.1%
  AESI: Drug abuse and dependence, number of events [E]: 1
  AESI: Herpes viral infections, %: 5.1%
  AESI: Herpes viral infections, number of events [E]: 61
  AESI: Injection-site reaction (any reaction), %: (2.8) %
  AESI: Lower Respiratory tract Infections, %: 3.3%
  AESI: Lower Respiratory tract Infections, number of events [E]: 31
  AESI: Neoplasms, %: 2.6%
  AESI: Neoplasms, number of events [E]: 28
  AESI: Neutropenia, %: 1.0%
  AESI: Neutropenia, number of events [E]: 13
  AESI: Opportunistic infections, %: 0.1%
  AESI: Opportunistic infections, number of events [E]: 1
  AESI: Pregnancy, %: 0.1%
  AESI: Pregnancy, number of events [E]: 1
  AESI: Premalignant disorders, %: 0.8%
  AESI: Premalignant disorders, number of events [E]: 9
  AESI: Risk of malignancy, %: 0.5%
  AESI: Risk of malignancy, number of events [E]: 5
  AESI: Suicidal Ideation and Behavior, %: 0.9%
  AESI: Suicidal Ideation and Behavior, number of events [E]: 9
  AESI: Urinary tract infection, number of events [E]: 4
  AESI: Varicella-Zoster virus infections, %: 2.0%
  AESI: Varicella-Zoster virus infections, number of events [E]: 19
  Drug abuse and dependence, %: (0.1) %
  Pregnancy, %: (0.1) %
  SAE by PT: Appendicitis, %: 0.9%
  SAE by PT: Appendicitis, patients: 8
  Serious TEAE: Blood and lymphatic system disorders, %: (0.2) %
  Serious TEAE: Cardiac disorders, %: (0.3) %
  Serious TEAE: Ear and labyrinth disorders, %: (0.3) %
  Serious TEAE: Gastrointestinal disorders, %: (0.9) %
  Serious TEAE: General disorders and administration site conditions, %: (0.3) %
  Serious TEAE: Hepatobiliary disorders, %: (0.5) %
  Serious TEAE: Immune system disorders, %: (0.1) %
  Serious TEAE: Injury, poisoning and procedural complications, %: (1.4%
  Serious TEAE: Investigations, %: (0.2) %
  Serious TEAE: Musculoskeletal and connective tissue disorders, %: (0.9) %
  Serious TEAE: Neoplasms benign, malignant and unspecified (incl cysts and polyps), %: (1.0) %
  Serious TEAE: Nervous system disorders, %: (0.8) %
  Serious TEAE: Psychiatric disorders, %: (1.1) %
  Serious TEAE: Respiratory, thoracic and mediastinal disorders, %: (0.2) %
  Serious TEAE: Skin and subcutaneous tissue disorders, %: (0.1) %
  TEAE: Cardiac disorders, %: (2.9) %
  TEAE: Congenital, familial and genetic disorders, %: (0.1) %
  TEAE: Endocrine disorders, %: (1.0) %
  TEAE: Gastrointestinal disorders, %: (24.2) %
  TEAE: Hepatobiliary disorders, %: (1.9) %
  TEAE: Immune system disorders, %: (1.8) %
  TEAE: Neoplasms benign, malignant and unspecified (incl cysts and polyps), %: (2.6) %
  TEAE: Nervous system disorders, %: (29.5) %
  TEAE: Reproductive system and breast disorders, %: (5.9) %
  TEAE: Social circumstances, %: (0.3) %
  TEAE: Vascular disorders, %: (6.0) %
Patients with RMS [3]
  Depletion of CD19+ B-cells and CD3+CD20+ T-cells: rapid and consistent depletion
Patients with RMS [3]; Phase II study
  Efficacy vs. placebo in lesion suppression: superior efficacy
Patients with RMS [4]; Asian (race)
  3mCDW event rate n/N (%): (8.3) %
  3mCDW events n: 3/36
  6mCDW event rate n/N (%): (8.3) %
  6mCDW events n: 3/36
Patients with RMS [4]; Rest of World (race)
  3mCDW event rate n/N (%): (9.3) %
  3mCDW events n: 85/910
  6mCDW event rate n/N (%): (7.5) %
  6mCDW events n: 68/910
Patients with RMS [4]; overall population
  3mCDW risk reduction compared with teriflunomide: 33.0%
  6mCDW risk reduction compared with teriflunomide: 31.0%
[5]; non-serious cases (n = 29)
  COVID-19 outcome Ongoing, cases: 0
  COVID-19 outcome Recovered, cases: 29
  COVID-19 outcome Recovering, cases: 0
[5]; of 35 confirmed cases
  Complete recovery from COVID-19, cases: 34
[5]; [6]
  COVID-19 outcome: Complete
  COVID-19 symptoms duration: ~50 days
[5]; [7]
  COVID-19 outcome: Complete
  COVID-19 symptoms duration: 18 days
[5]; [8]
  COVID-19 outcome: Fatal
  COVID-19 symptoms duration: ~30 days
[5]; patient 5800043, OMB continued
  COVID-19 outcome: Complete
  COVID-19 symptoms duration: 11 days
[5]; [9]
  COVID-19 outcome: Complete
  COVID-19 symptoms duration: 15 days
[5]; patient 5806001, OMB continued
  COVID-19 outcome: Complete
  COVID-19 symptoms duration: 10 days
[5]; serious cases (n = 6)
  COVID-19 outcome Fatal, cases: 1
  COVID-19 outcome Recovered, cases: 5
